In patent publication US10307466B2, “Composition comprising sophorolipid, physiologically active substance and oil or fat, and method for producing the same” (SARAYA CO., LTD., priority 2014, dated 2019):

System: ICR mice
Assay: Tail-flick test with 48° C. heat stimulation (enhancement of the analgesic effect of morphine)
Assay type: in vivo
Design: key: −: no analgesic effect was observed; ±: an analgesic effect comparable to the treatment control was observed; +: an analgesic effect comparable to the positive control was observed; ++: a higher analgesic effect than the positive control was observed; +++: a higher analgesic effect than “++” was observed
Experimental: For the evaluation of an analgesic effect, the tail-flick test was performed with 48° C. heat stimulation. In the tail-flick test, the tail of mice is exposed to heat stimulation, and latency for the animal to flick the tail is measured. The response latency is known to be delayed after administration of an analgesic drug such as morphine. The test is used for the evaluation of an analgesic effect.
ICR mice at 5 weeks old were subjected to daily simultaneous administration of an intraperitoneal dose of morphine (3 mg/kg) (morphine hydrochloride (trade name), Daiichi Sankyo) and an oral dose of one of the compositions of Examples 1 to 3 (300 mg/kg bLF) and Comparative Example 1 (300 mg/kg) for 5 days. At 30 and 90 minutes after the administration on day 5, the tail-flick test was performed.
As a treatment control, ICR mice at 5 weeks old were subjected to daily simultaneous administration of an intraperitoneal dose of morphine (3 mg/kg) and an oral dose of physiological saline for 5 days. The tail-flick test was then performed in the same manner as above.
As a negative control, daily simultaneous administration of an intraperitoneal dose of physiological saline and an oral dose of physiological saline was performed for 5 days. […]

B1: bovine lactoferrin (protein, UniProt P24627 20-708, looked up)
Lactotransferrin: APRKNVRWCTISQPEWFKCRRWQWRMKKLGAPSITCVRRAFALECIRAIAEKKADAVTLDGGMVFEAGRDPYKLRPVAAEIYGTKESPQTHYYAVAVVKKGSNFQLDQLQGRKSCHTGLGRSAGWIIPMGILRPYLSWTESLEPLQGAVAKFFSASCVPCIDRQAYPNLCQLCKGEGENQCACSSREPYFGYSGAFKCLQDGAGDVAFVKETTVFENLPEKADRDQYELLCLNNSRAPVDAFKECHLAQVPSHAVVARSVDGKEDLIWKLLSKAQEKFGKNKSRSFQLFGSPPGQRDLLFKDSALGFLRIPSKVDSALYLGSRYLTTLKNLRETAEEVKARYTRVVWCAVGPEEQKKCQQWSQQSGQNVTCATASTTDDCIVLVLKGEADALNLDGGYIYTAGKCGLVPVLAENRKSSKHSSLDCVLRPTEGYLAVAVVKKANEGLTWNSLKDKKSCHTAVDRTAGWNIPMGLIVNQTGSCAFDEFFSQSCAPGADPKSRLCALCAGDDQGLDKCVPNSKEKYYGYTGAFRCLAEDVGDVAFVKNDTVWENTNGESTADWAKNLNREDFRLLCLDGTRKPVTEAQSCHLAVAPNHAVVSRSDRAAHVKQVLLHQQALFGKNGKNCPDKFCLFKSETKNLLFNDNTECLAKLGGRPTYEEYLGTEYVTAIANLKKCSTSPLLEACAFLTR
- Evaluation at 30 min (analgesic effect, tail-flick test) (30 minutes after administration on day 5, daily i.p. morphine 3 mg/kg + oral composition (300 mg/kg bLF) for 5 days): +
- Evaluation at 90 min (analgesic effect, tail-flick test) (90 minutes after administration on day 5, daily i.p. morphine 3 mg/kg + oral composition (300 mg/kg bLF) for 5 days): +
